Columns and labels:
[1] = molecular target: CK8/18 Ab (mouse antibody detected by the secondary anti-mouse antibody); experiment: microscopy count on SKBR3 cells; 80 uL anti-mouse IgG-biotin, 7.5 uL Mag-Strept, 7.5 uL Mag-anti FITC
[2] = molecular target: CK8/18 Ab (mouse antibody detected by the secondary anti-mouse antibody); experiment: microscopy count on SKBR3 cells; 80 uL anti-mouse IgG-biotin, 7.5 uL Mag-Strept, 0 uL Mag-anti FITC

## Secondary antibody-biotin = goat anti-mouse IgG biotin (whole molecule)-Biotin
[1]
  Carrier particles per cancer cell (carrier particles per cancer cell): 1110
[2]
  Carrier particles per cancer cell (carrier particles per cancer cell): 133

Reference: patent US20170102390A1
